How the values were obtained:
TGFBR2 = TGFBR2 surface expression (knockdown or knockout) on T cells by flow cytometry; assay type: cell-based, human; conditions: for TGFBR2 knockout frequency, percent of cells in the culture: 6 days after electroporation of nuclease RNA, vs mock nucleofected
Experimental: Nucleofection was carried out in the presence of 2 μg/1×10^6 cells of linearized DNA encoding the CAR and one of the candidate TGFBR2 shRNAmiRs.
Cells were analyzed for TGFBR2 expression at d7, 10, and 14 post-nucleofection using the anti-TGFBR2 antibody MM0056-4F14 (Abcam), and an anti-mouse kappa light chain secondary antibody conjugated to PE (BioLegend). CAR+ cells were identified using anti-FMC63-Alx647, produced in house. The mean fluorescence intensity (MFI) of TGFBR2 signal on the CAR+ was compared to that on the CAR− cells and a percent knockdown was calculated. The frequency of CAR+ events was consistent across the different constructs, ranging from 4.9% to 6.7% (FIG. 12).
Electroporated cells were cultured for 6 days in complete X-VIVO15 medium supplemented with 30 ng/ml IL-2 prior to an analysis of editing efficiency. This was achieved by staining cells with an anti-TGFβRII antibody (Abcam clone MM0056-4F14) followed by anti-mouse IgG κ light chain conjugated to PE (BioLegend clone RMK45). Data were acquired on a Beckman-Coulter CytoFLEX-S or LX.
Mock nucleofected T cells were stained with the anti-TGFβRII antibody and the secondary antibody or the secondary antibody alone to serve as positive and negative controls, respectively, for surface detection of TGFβRII.
A further study was conducted in which the activity of CAR T cells was assessed following various alterations to the TGFβ pathway. […] In some variants, a sequence encoding a shRNAmiR was also introduced at the TRC 1-2 site in the same cassette as the CAR (positioned between the CAR stop codon and a polyA sequence). In one variant, the shRNAmiR was a TGFBR2-specific shRNAmiR (construct 72154) while in another variant a shRNAmiR that is irrelevant to TGFβ function (targeting B2M—construct 72155) was introduced. A third variant of CAR T cells was produced using construct 72155, but they were edited at the TGFBR2 locus using the TGF1-2L296 nuclease described above in order to knockout the TGFBR2 gene. CAR T cells in the TGFBR2 KO group contained 60% KO.

SMAD2/3 = experiment: Phosphorylated SMAD2/3 after TGFβ1 stimulation by flow cytometry; assay type: cell-based, human; conditions: BCMA CAR T cells, TGFβ1 500 ng/ml
From the text: T cells electroporated with TRC1-2L.1592 were immediately transduced with AAV72112 (encoding the anti-CD19 FMC63 CAR described in Example 1 and a TGFBR2-specific shRNAmiR inserted after the CAR stop codon and before a polyA sequence) or AAV7206 (encoding a control FMC63 CAR with no RNAi). Following six days of culture, CD3-CAR+ cells were purified by FACS using methods described above. In addition, TGFβRII-cells from TGF1-2L.296-edited cultures were sorted in this manner. Sorted cells were rested in serum free medium overnight before being stimulated with 500 ng/ml of recombinant human TGFβ1, the ligand for TGFBR2 (PeproTech). Thirty minutes following TGFβ1 addition, cells were harvested and immediately prepared for staining using Phos-Flow lyse-fix buffer and Phos-Flow Fix-Perm buffer III (BD Biosciences) according to the manufacturer's instructions. Fixed cells were stained with anti-pSMAD2/3-PE (BD Biosciences) and data were acquired on a Beckman-Coulter CytoFLEX-LX. […]
BCMA CAR T cells having knock out of TGFBR2 were prepared with the TGF 1-2L.296 meganuclease and cells having knock down of TGFBR2 were prepared with the 72112 TGFBR2 shRNAmiR as described above. The respective BCMA CAR T cell groups were treated with TGFβ1 (500 ng/ml) and all cell groups were harvested and analyzed as described above. […]

| Molecule | TGFBR2 knockout frequency, percent of cells in the culture (TGFBR2) | TGFBR2 KO in CAR T cell group (TGFBR2; BCMA CAR T cells, construct 72155 plus nuclease) | pSMAD2/3 level after TGFβ1 (SMAD2/3) |
| --- | --- | --- | --- |
| TGF 1-2x.5: engineered meganuclease targeting the TGFBR2 gene (SEQ ID NO: 64) (protein) MNTKYNKEFLLYLAGFVDGDGSIYACIEPDQSRKFKHTLRLYFEVGQKTQRRWFLDKLVDEIGVGYVYDRGSVSNYRLSEIKPLHNFLTQLQPFLKLKQKQANLVLKIIEQLPSAKESPDKFLEVCTWVDQIAALNDSKTRKTTSETVRAVLDSLPGSVGGLSPSQASSAASSASSSPGSGISEALRAGAGSGTGYNKEFLLYLAGFVDGDGSIFACITPSQTHKFKHRLFLRFTVGQKTQRRWFLDKLVDEIGVGYVVDSGSVSEYRLSQIKPLHNFLTQLQPFLKLKQKQANLVLKIIEQLPSAKESPDKFLEVCTWVDQIAALNDSKTRKTTSETVRAVLDSLSEKKKSSP | 38.6% | – | – |
| TGF 1-2L.296: engineered meganuclease targeting the TGFBR2 gene (SEQ ID NO: 65) (protein) MNTKYNKEFLLYLAGFVDGDGSIYACITPKQRSKFKHSLRLRFTVGQKTQRRWFLDKLVDEIGVGYVLDGGGVSEYRLSEIKPLHNFLTQLQPFLKLKQKQANLVLKIIEQLPSAKESPDKFLEVCTWVDQIAALNDSKTRKTTSETVRAVLDSLPGSVGGLSPSQASSATSSASSSPGSGISEALRAGAGSGTGYNKEFLLYLAGFVDGDGSIYACIEPDQSRKFKHTLRLYFEVGQKTQRRWFLDKLVDEIGVGYVYDRGSVSNYRLSEIKPLHNFLTQLQPFLKLKQKQANLVLKIIEQLPSAKESPDKFLEVCTWVDQIAALNDSKTRKTTSETVRAVLDSLSEKKKSSP | 69% | 60% | decreased pSMAD2/3 to levels comparable to, or lower than, the untreated BCMA CAR T cell control |

Reference: patent US11851680B2, “Genetically-modified immune cells comprising a microRNA-adapted shRNA (shRNAmiR)” (Precision Biosciences, Inc., priority 2019, dated 2023)
